Test results from patent US20240383989A1 (PHARMABCINE, published 2024).

Experiments:
[1] = target: T1, human KDR1 to 3 domain (human, UniProt P35968 20-327, limits assumed); experiment: BLI (Octet), KDR1 to 3 domains on biosensor, scFv added, off-rate screening
T1 construct: domain: KDR1 to 3 domain; The panning antigen was KDR1 to 3 domain-Fc; Treated as one molecule; also called KDR1 to 3 domains; KDR D1 to D3

[2] = target: T1, human KDR1 to 3 domain; experiment: BLI (Octet), antibody on biosensor, human KDR1 to 3 as analyte
Procedure: The binding of the selected antibodies to the KDR1 to 3 domain was measured using the Octet system (Fortebio Inc. US).

[3] = target: human KDR1 to 3 domain (human) (UniProt P35968); experiment: BLI (Octet), KDR1 to 3 domains on biosensor, scFv added, off-rate screening
[4] = target: human KDR1 to 3 domain (human) (UniProt P35968); experiment: BLI (Octet), antibody on biosensor, human KDR1 to 3 as analyte

T1 sequence (P35968 20-327 limits assumed): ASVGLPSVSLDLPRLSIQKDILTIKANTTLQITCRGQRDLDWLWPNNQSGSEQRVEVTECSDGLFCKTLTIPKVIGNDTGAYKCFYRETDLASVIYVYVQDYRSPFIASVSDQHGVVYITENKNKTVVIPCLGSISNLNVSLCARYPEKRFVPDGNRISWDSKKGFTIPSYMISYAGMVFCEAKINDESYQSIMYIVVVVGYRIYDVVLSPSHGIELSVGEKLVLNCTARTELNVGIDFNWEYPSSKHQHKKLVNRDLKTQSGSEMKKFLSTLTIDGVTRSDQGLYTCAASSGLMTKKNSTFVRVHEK
Sequence of human KDR1 to 3 domain (human) (P35968 20-327 limits assumed): as above

B1: D4 (scFv) (scFv, part only; not given: scFv linker, domain order, tags, V domains shown, not shown: another chain or arm of the molecule; small tags and cut ends)
VH: EVQLVESGGGLVQPGGSLRLSCAASGYTFSSYWMSWVRQAPGKGLEWVSEINPGNGHTNYNEKFKSRFTISRDKSKNTLYLQMNSLRAEDTAVYYCARHWGPSLTSPFDYWGQGTLVTVSS
VL: DIQMTQSPSSLSASVGDRVTITCRADNLGDVNVHWYQQKPGKAPKLLIYYDADRPSGVPSRFSGSNSGNDATLTISSLQPEDFATYYCQAPTNNDPYTFGQGTKVEIK
[1]
  koff: 0.000165 s⁻¹

B2: D4 (IgG) (antibody, V domains shown)
VH: EVQLVESGGGLVQPGGSLRLSCAASGYTFSSYWMSWVRQAPGKGLEWVSEINPGNGHTNYNEKFKSRFTISRDKSKNTLYLQMNSLRAEDTAVYYCARHWGPSLTSPFDYWGQGTLVTVSS
VL: DIQMTQSPSSLSASVGDRVTITCRADNLGDVNVHWYQQKPGKAPKLLIYYDADRPSGVPSRFSGSNSGNDATLTISSLQPEDFATYYCQAPTNNDPYTFGQGTKVEIKR
notes: Converted to IgG with the pfusess-hchg1 (human IgG1) and pfuse2ss-hclk (human kappa) vectors
[2]
  Kd: 0.366 nM
  koff: 3.45e-05 s⁻¹

B3: LH-E7 (scFv) (scFv, V domains shown)
VH: EVQLVESGGGLVQPGGSLRLSCAASGYTFSSYWMSWVRQAPGKGLEWVSEINPGNGHTNYNEKFKSRFTISRDKSKNTLYLQMNSLRAEDTAVYYCARHWGPSLTSPFDYWGQGTLVTVSS
VL: DIQMTQSPSSLSASVGDRVTITCRADNLGDVNVHWYQQKPGKAPKLLIYYDADRPSGVPSRFSGSNSGNDATLTISSLQPEDFATYYCQAPTRIAPYTFGQGTKVEIKR
[1]
  koff: 0.000111 s⁻¹

B4: LHL-G1 (scFv) (scFv, V domains shown)
VH: EVQLVESGGGLVQPGGSLRLSCAASGYTFSSYWMSWVRQAPGKGLEWVSEINPGNGHTNYNEKFKSRFTISRDKSKNTLYLQMNSLRAEDTAVYYCARSYRPSLTSPFDFWGQGTLVTVSS
VL: DIQMTQSPSSLSASVGDRVTITCRADNLGDVNVHWYQQKPGKAPKLLIYYDADRPSGVPSRFSGSNSGNDATLTISSLQPEDFATYYCQAPTTNEPYTFGQGTKVEIKR
[1]
  koff: 0.000239 s⁻¹

B5: D3 (scFv) (scFv, part only; not given: scFv linker, domain order, tags, V domains shown, not shown: another chain or arm of the molecule; small tags and cut ends)
VH: EVQLVESGGGLVQPGGSLRLSCAASGYTFSSYWMSWVRQAPGKGLEWVSEINPGNGHTNYNEKFKSRFTISRDKSKNTLYLQMNSLRAEDTAVYYCARHWGPSLTSPFDYWGQGTLVTVSS
VL: DIQMTQSPSSLSASVGDRVTITCRADNLGDVNVHWYQQKPGKAPKLLIYYDADRPSGVPSRFSGSNSGNDATLTISSLQPEDFATYYCQAPTKNVPYTFGQGTKVEIK
[1]
  koff: 0.00015 s⁻¹

B6: A5 (scFv) (scFv, part only; not given: scFv linker, domain order, tags, V domains shown, not shown: another chain or arm of the molecule; small tags and cut ends)
VH: EVQLVESGGGLVQPGGSLRLSCAASGYTFSSYWMSWVRQAPGKGLEWVSEINPGNGHTNYNEKFKSRFTISRDKSKNTLYLQMNSLRAEDTAVYYCARHWGPSLTSPFDYWGQGTLVTVSS
VL: DIQMTQSPSSLSASVGDRVTITCRADNLGDVNVHWYQQKPGKAPKLLIYYDADRPSGVPSRFSGSNSGNDATLTISSLQPEDFATYYCQAPTTHLPYTFGQGTKVEIK
[1]
  koff: 0.000187 s⁻¹

B7: LH-E7 (IgG) (antibody, V domains shown)
VH: EVQLVESGGGLVQPGGSLRLSCAASGYTFSSYWMSWVRQAPGKGLEWVSEINPGNGHTNYNEKFKSRFTISRDKSKNTLYLQMNSLRAEDTAVYYCARHWGPSLTSPFDYWGQGTLVTVSS
VL: DIQMTQSPSSLSASVGDRVTITCRADNLGDVNVHWYQQKPGKAPKLLIYYDADRPSGVPSRFSGSNSGNDATLTISSLQPEDFATYYCQAPTRIAPYTFGQGTKVEIKR
notes: Converted to IgG; VH was cloned into Invivogen pfusess-hchg1 (human IgG1 heavy constant) and VL into pfuse2ss-hclk (human kappa constant); also called LH-67; LH-ET
[2]
  Kd: 1.3 nM
  koff: 6.55e-05 s⁻¹
  kon: 50600 M⁻¹ s⁻¹

B8: D3 (IgG) (antibody, V domains shown)
VH: EVQLVESGGGLVQPGGSLRLSCAASGYTFSSYWMSWVRQAPGKGLEWVSEINPGNGHTNYNEKFKSRFTISRDKSKNTLYLQMNSLRAEDTAVYYCARHWGPSLTSPFDYWGQGTLVTVSS
VL: DIQMTQSPSSLSASVGDRVTITCRADNLGDVNVHWYQQKPGKAPKLLIYYDADRPSGVPSRFSGSNSGNDATLTISSLQPEDFATYYCQAPTKNVPYTFGQGTKVEIKR
notes: as for B2
[2]
  Kd: 0.773 nM
  koff: 8.67e-05 s⁻¹
  kon: 112000 M⁻¹ s⁻¹

B9: A5 (IgG) (antibody, V domains shown)
VH: EVQLVESGGGLVQPGGSLRLSCAASGYTFSSYWMSWVRQAPGKGLEWVSEINPGNGHTNYNEKFKSRFTISRDKSKNTLYLQMNSLRAEDTAVYYCARHWGPSLTSPFDYWGQGTLVTVSS
VL: DIQMTQSPSSLSASVGDRVTITCRADNLGDVNVHWYQQKPGKAPKLLIYYDADRPSGVPSRFSGSNSGNDATLTISSLQPEDFATYYCQAPTTHLPYTFGQGTKVEIKR
notes: as for B2
[2]
  Kd: 0.886 nM
  koff: 8.86e-05 s⁻¹

B10: LHL-G1 (IgG) (antibody, V domains shown)
VH: EVQLVESGGGLVQPGGSLRLSCAASGYTFSSYWMSWVRQAPGKGLEWVSEINPGNGHTNYNEKFKSRFTISRDKSKNTLYLQMNSLRAEDTAVYYCARSYRPSLTSPFDFWGQGTLVTVSS
VL: DIQMTQSPSSLSASVGDRVTITCRADNLGDVNVHWYQQKPGKAPKLLIYYDADRPSGVPSRFSGSNSGNDATLTISSLQPEDFATYYCQAPTTNEPYTFGQGTKVEIKR
notes: as for B2
[2]
  koff: 0.000251 s⁻¹
  kon: 73700 M⁻¹ s⁻¹

B11: 6A6 (scFv) (scFv, from another filing, V domains shown)
VH: QMQLVQSGAEVKKPGASVKLSCKASGYTFSSYWMHWVRQAPGQRLEWMGEINPGNGHTNYNEKFKSRVTITVDKSASTAYMELSSLRSEDTAVYYCAKIWGPSLTSPFDYWGQGTLVTVSS
VL: SNFMLTQPPSVSVSPGKTARITCRGDNLGDVNVHWYQQRPGQAPVLVMYYDADRPSGIPERFSGSNSGNTATLTISGVEAGDEADYYCQVWDRTSEYVFGTGTKVTVLG
[3]
  koff: 0.000266 s⁻¹

B12: 6A6 (IgG) (antibody, from another filing, V domains shown)
VH: QMQLVQSGAEVKKPGASVKLSCKASGYTFSSYWMHWVRQAPGQRLEWMGEINPGNGHTNYNEKFKSRVTITVDKSASTAYMELSSLRSEDTAVYYCAKIWGPSLTSPFDYWGQGTLVTVSS
VL: SNFMLTQPPSVSVSPGKTARITCRGDNLGDVNVHWYQQRPGQAPVLVMYYDADRPSGIPERFSGSNSGNTATLTISGVEAGDEADYYCQVWDRTSEYVFGTGTKVTVLG
[4]
  Kd: 13.2 nM
  koff: 0.00168 s⁻¹
  kon: 127000 M⁻¹ s⁻¹
